Details: Homo sapiens; pH 8.5; 20 °C; Urea; CD; Tris 10 mM; reversible: yes; whole UniProt chain shown

B1: Cyclin-dependent kinase inhibitor 2A wild type, P42771 (protein)
chain: MEPAAGSSMEPSADWLATAAARGRVEEVRALLEAGALPNAPNSYGRRPIQVMMMGSARVAELLLLHGAEPNCADPATLTRPVHDAAREGFLDTLVVLHRAGARLDVRDAWGRLPVDLAEELGHRDVARYLRAAAGGTRGSNHARIDAAEGPSDIPD
Q: Which results are given for B1?
A: denaturant m value: 1.72 kcal/mol/M; denaturant midpoint (higher = more stable): 2 M; unfolding free energy: 3.34 kcal/mol
